Test results reported in publication PMC3092513 (Enzyme Research, 2011).

Tests used:
[1] = substrate: O=C(O)C(=O)C[C@@H](O)[C@H](O)[C@H](O)COP(=O)(O)O; assay: purified protein; format: biochemical, Pyrococcus furiosus; details: 60 °C, pH 6.8, 50 mM BTP, 10 μM EDTA, 100 μM ZnCl2, 29 μM NAD+, 56 nM enzyme
[2] = biological target: the molecule itself; assay: SEC; Superdex S200 HR 10/300; 10 mM BTP, 10 μM EDTA, 50 mM KCl, pH 6.8; partially purified protein at ≤10 mg/mL; mass estimated from a standard curve of five proteins; dimer of the enzyme
[3] = substrate: O=C(O)C(=O)C[C@@H](O)[C@H](O)[C@H](O)COP(=O)(O)O; assay: purified protein; format: biochemical, Escherichia coli; details: 25 °C, pH 6.8

B1: Pyrococcus furiosus dehydroquinate synthase (enzyme, UniProt Q8U0A8 1-335, looked up)
chain: MEGIIFGDLSTLPDLLSSLSPYKVVVLTNTTLKELWLEEVLTWLKEFKPQTIVVPDGEKYKDLDTVRYIWEKLLEMGFTRRSLLIGLGGGVITDIAGFVASTYMRGTYLGLVPTTLLAQVDAAIGGKTGINFYGKNIIGTFYLPKFVLICRDFLKTLPMVEILNGLAEVVKYGILDKEVYNAIKTMNSPREIVEREDIIKKSVAVKLRIVEEDLKENGKRRVLNLGHTVGHAIEKISDYKIKHGFAVSMGLVVEAKIGEILYGFDSGKVVEILTKFGLPVKIPFDPYTTLQAMKIDKKAWYGKIVIVVPVEIGKANIEEVDEKIILQALEEAKNA
Km [1]: 3.7 ± 0.2 µM
kcat [1]: 3 ± 0.1 s⁻¹
kcat/Km [1]: 800000 M⁻¹ s⁻¹
stoichiometry N [2]: 2

B2: EcoDHQS (Escherichia coli K-12) (protein)
chain: MERIVVTLGERSYPITIASGLFNEPASFLPLKSGEQVMLVTNETLAPLYLDKVRGVLEQAGVNVDSVILPDGEQYKSLAVLDTVFTALLQKPHGRDTTLVALGGGVVGDLTGFAAASYQRGVRFIQVPTTLLSQVDSSVGGKTAVNHPLGKNMIGAFYQPASVVVDLDCLKTLPPRELASGLAEVIKYGIILDGAFFNWLEENLDALLRLDGPAMAYCIRRCCELKAEVVAADERETGLRALLNLGHTFGHAIEAEMGYGNWLHGEAVAAGMVMAARTSERLGQFSSAETQRIITLLKRAGLPVNGPREMSAQAYLPHMLRDKKVLAGEMRLILPLAIGKSEVRSGVSHELVLNAIADCQSA
notes: recombinant, overexpressed in E. coli RB791 from plasmid of J. R. Coggins; ammonium sulfate and anion exchange; no tag mentioned
Km [3]: 6.3 ± 0.2 µM
kcat [3]: 16 ± 0.2 s⁻¹
kcat/Km [3]: 2.5e+06 M⁻¹ s⁻¹
